Substitutions are numbered along the chain they refer to. One block for each binder: values may come before it.
Biological target: T1, Soluble CDCP1 extracellular domain (CDCP1-ECD) (SEQ ID NO:30) fused to Streptavidin Binding Protein (SBP) (human, UniProt Q9H5V8 30-663)
T1 construct: also called SBP-CDCP1-ECD
T1 sequence: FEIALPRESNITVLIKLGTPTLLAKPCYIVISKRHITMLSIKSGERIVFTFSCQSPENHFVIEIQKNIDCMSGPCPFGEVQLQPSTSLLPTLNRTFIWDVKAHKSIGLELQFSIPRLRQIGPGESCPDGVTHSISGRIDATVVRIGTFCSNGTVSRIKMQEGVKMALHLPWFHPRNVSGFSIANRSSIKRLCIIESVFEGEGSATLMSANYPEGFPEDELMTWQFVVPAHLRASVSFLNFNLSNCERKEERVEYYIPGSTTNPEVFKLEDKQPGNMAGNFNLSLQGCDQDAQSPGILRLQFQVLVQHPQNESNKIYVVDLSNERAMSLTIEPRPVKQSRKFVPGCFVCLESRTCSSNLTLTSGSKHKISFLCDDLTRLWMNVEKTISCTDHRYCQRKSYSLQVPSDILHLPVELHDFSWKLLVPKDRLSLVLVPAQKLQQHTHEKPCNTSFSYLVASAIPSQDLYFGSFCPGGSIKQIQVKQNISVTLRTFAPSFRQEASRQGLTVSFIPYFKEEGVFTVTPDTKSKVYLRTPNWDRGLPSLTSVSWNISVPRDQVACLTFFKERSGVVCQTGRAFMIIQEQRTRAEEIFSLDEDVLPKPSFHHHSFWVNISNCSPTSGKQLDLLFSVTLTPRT
Experiment: ELISA on captured SBP-CDCP1-ECD, ratio relative to chimeric CUB4 (chHC4)
Protocol: Soluble CDCP1 extracellular domain (CDCP1-ECD) (SEQ ID NO:30) fused to Streptavidin Binding Protein (SBP) was captured on a sreptavidine plate. To define optimal binding of the antibody to SBP-CDCP1-ECD, 384-well polystyrene plates (NUNC, streptavidin-coated) delivered by MicroCoat, Bernried, Germany (ID-No. 1734776-001) have been coated with pure and stepwise diluted HEK293 supernatant (in BSA/IMDM buffer: 100 mg/ml BSA Fraction V, Roche 10735078001, dissolved in Iscove's Modified Dulbeccos Medium). Using a calibration curve of mouse CUB4 antibodies the optimal dilution factor of the HEK293 supernatant in relation to the streptavidin binding capacity of the microtiter plate was identified. For the standard coating, SBP-CDCP1-ECD containing HEK293 supernatant was diluted (between 1:15 and 1:40) and incubated overnight at 2-8° C. (25 μl per well). Intensive washing of the microtiter plate is necessary to remove remaining unbound SBP-CDCP1-ECD.
Humanized CUB4 antibodies and/or reference antibody (chimeric (chHC4) CUB4 antibody comprising human constant region and mouse VH and VL of SEQ ID NO:1 and 2) were tested either undiluted or using a 12-step-dilution. 12.5 μl per well of each sample was incubated for 90 min at room temperature. After intensive washing using PBS-T (0.1% Tween 20 in PBS) 25 μl of either goat anti-human IgG antibodies coupled with HRP (Jackson ImmunoResearch, Code No: 109-036-098, dilution 1:10000) for human antibodies were added and incubated for 1 hour. After intensive washing the binding of the antibodies was detected with ABTS tablets (Roche Diagnostics GmbH, Cat. No.: 1112422). Absorbance at 405 nm/492 nm was measured using a standard photometer.

relative binding ratio: 0.46
B1: hHC4-a / hLC4-e (antibody, V domains shown)
VH: EVQLVESGGGLVKPGGSLRLSCAASGFTFNSYGMSWVRQAPGKGLEWVSTISSGGSYTYYPDSVKGRFTISRDNAKNSLYLQMNSLRAEDTAVYYCARHPDYDGVWFAYWGQGTLVTVSS
VL: DIQMTQSPSSLSASVGDRVTITCSVSSSVFYVHWYQQKPGKAPKLLIYDTSKLASGVPSRFSGSGSGTDFTFTISSLQPEDIATYYCQQWNSNPPTFGGGTKVEIK

relative binding ratio: 0.51
B2: hHC4-a / hLC4-K (antibody, V domains shown)
VH: B1 VH
VL: EIVLTQSPATLSLSPGERATLSCRASSSVFYLHWYQQKPGQAPRLWIYDTSKLASGIPARFSGSGSGTDFTLTISSLEPEDFAVYYCQQWNSNPPTFGGGTKVEIK

relative binding ratio: 1
B3: hHC4-c / chLC4 (antibody, V domains shown)
VH: B1 VH with K13Q, S49A
VL: QIVLTQSPAIMSASPGEKVTMTCSVSSSVFYVHWYQQKSGTSPKRWIYDTSKLASGVPARFSGSGSGTSYSLTISSMEAEDAATYYCQQWNSNPPTFGGGTKLEIK

relative binding ratio: 0.42
B4: hHC4-H / hLC4-f (antibody, V domains shown)
VH: B1 VH with K13Q, S49A, T58K, P61V
VL: B1 VL with F70Y
notes: also called Humanized CUB4 Antibody No. 146

relative binding ratio: 0.07
B5: hHC4-03 / hLC4-a (antibody, V domains shown)
VH: B1 VH with V5L, K13Q, T50A, A75S, S78T, R98K
VL: B2 VL with R24S, A25V, L32V, W46L

relative binding ratio: 0.17
B6: hHC4-03 / hLC4-L (antibody, V domains shown)
VH: B1 VH with V5L, K13Q, T50A, A75S, S78T, R98K
VL: B2 VL with L21M

relative binding ratio: 0.2
B7: hHC4-04 / hLC4-e (antibody, V domains shown)
VH: B1 VH with V5L, K13Q, A75S, S78T
VL: B1 VL

relative binding ratio: 0.07
B8: hHC4-K2 / hLC4-e (antibody, V domains shown)
VH: B1 VH with T50S, P61A
VL: B1 VL

relative binding ratio: 0.27
B9: hHC4-d / hLC4-e (antibody, V domains shown)
VH: B1 VH with V5L, K13Q, A75S, S78T, R98K
VL: B1 VL

binding result: no binding
B10: hHC4-04 / hLC4-I (antibody, V domains shown)
VH: B1 VH with V5L, K13Q, A75S, S78T
VL: B2 VL with L4M, H33S, E78Q

binding result: no binding
B11: hHC4-b / hLC4-f (antibody, V domains shown)
VH: B1 VH with G33S, S35N, T50S, T58I, P61A
VL: B1 VL with F70Y

binding result: no binding
B12: hHC4-03 / hLC4-I (antibody, V domains shown)
VH: B1 VH with V5L, K13Q, T50A, A75S, S78T, R98K
VL: B2 VL with L4M, H33S, E78Q

relative binding ratio: 0.25
B13: hHC4-c / hLC4-e (antibody, V domains shown)
VH: B1 VH with K13Q, S49A
VL: B1 VL

relative binding ratio: 0.07
B14: hHC4-I / hLC4-e (antibody, V domains shown)
VH: B1 VH with V5L, K13Q, G33A, T50A, P61A, A75S, S78T, R98K
VL: B1 VL

relative binding ratio: 0.14
B15: hHC4-03 / hLC4-M (antibody, V domains shown)
VH: B1 VH with V5L, K13Q, T50A, A75S, S78T, R98K
VL: B2 VL with L21M, R24G, Q41L, A59D, S76R

relative binding ratio: 0.67
B16: hHC4-04 / hLC4-L2 (antibody, V domains shown)
VH: B1 VH with V5L, K13Q, A75S, S78T
VL: B2 VL with L21M, R24S, A25V

relative binding ratio: 0.39
B17: hHC4-04 / hLC4-a (antibody, V domains shown)
VH: B1 VH with V5L, K13Q, A75S, S78T
VL: B2 VL with R24S, A25V, L32V, W46L

relative binding ratio: 0.34
B18: hHC4-c / hLC4-f (antibody, V domains shown)
VH: B1 VH with K13Q, S49A
VL: B1 VL with F70Y

relative binding ratio: 0.07
B19: hHC4-07 / hLC4-e (antibody, V domains shown)
VH: B1 VH with V5L, K13Q, G33A, A75S, S78T, R98K
VL: B1 VL

relative binding ratio: 0.07
B20: hHC4-07 / hLC4-f (antibody, V domains shown)
VH: B1 VH with V5L, K13Q, G33A, A75S, S78T, R98K
VL: B1 VL with F70Y

relative binding ratio: 0.37
B21: hHC4-04 / hLC4-f (antibody, V domains shown)
VH: B1 VH with V5L, K13Q, A75S, S78T
VL: B1 VL with F70Y

binding result: no binding
B22: hHC4-b / hLC4-e (antibody, V domains shown)
VH: B1 VH with G33S, S35N, T50S, T58I, P61A
VL: B1 VL

relative binding ratio: 0.07
B23: hHC4-03 / hLC4-b (antibody, V domains shown)
VH: B1 VH with V5L, K13Q, T50A, A75S, S78T, R98K
VL: B2 VL with R24S, A25V, L32V, W46L, F70Y

relative binding ratio: 0.68
B24: hHC4-04 / hLC4-L (antibody, V domains shown)
VH: B1 VH with V5L, K13Q, A75S, S78T
VL: B2 VL with L21M

binding result: no binding
B25: hHC4-K / hLC4-f (antibody, V domains shown)
VH: B1 VH with T50S, T58I, P61A
VL: B1 VL with F70Y

binding result: no binding
B26: hHC4-b / chLC4 (antibody, V domains shown)
VH: B1 VH with G33S, S35N, T50S, T58I, P61A
VL: B3 VL

relative binding ratio: 0.5
B27: hHC4-a / hLC4-f (antibody, V domains shown)
VH: B1 VH
VL: B1 VL with F70Y

relative binding ratio: 0.71
B28: hHC4-04 / chLC4 (antibody, V domains shown)
VH: B1 VH with V5L, K13Q, A75S, S78T
VL: B3 VL

relative binding ratio: 0.07
B29: hHC4-03 / hLC4-f (antibody, V domains shown)
VH: B1 VH with V5L, K13Q, T50A, A75S, S78T, R98K
VL: B1 VL with F70Y

binding result: no binding
B30: hHC4-K / hLC4-e (antibody, V domains shown)
VH: B1 VH with T50S, T58I, P61A
VL: B1 VL

relative binding ratio: 0.82
B31: hHC4-04 / hLC4-M (antibody, V domains shown)
VH: B1 VH with V5L, K13Q, A75S, S78T
VL: B2 VL with L21M, R24G, Q41L, A59D, S76R

relative binding ratio: 1.12
B32: hHC4-H / chLC4 (antibody, V domains shown)
VH: B1 VH with K13Q, S49A, T58K, P61V
VL: B3 VL

relative binding ratio: 0.57
B33: hHC4-04 / hLC4-K (antibody, V domains shown)
VH: B1 VH with V5L, K13Q, A75S, S78T
VL: B2 VL

relative binding ratio: 0.4
B34: hHC4-d / hLC4-f (antibody, V domains shown)
VH: B1 VH with V5L, K13Q, A75S, S78T, R98K
VL: B1 VL with F70Y

relative binding ratio: 0.4
B35: hHC4-04 / hLC4-J (antibody, V domains shown)
VH: B1 VH with V5L, K13Q, A75S, S78T
VL: B2 VL with L4M, L21M, E78Q

Source: patent publication US20110052582A1 (Hoffmann-La Roche, published 2011)
